Read-outs that look alike come from different tables or passages of the source.
Tests used:
human BCMA on cells [1] = biological target: T1, human BCMA on cells (human, UniProt Q02223 1-184); test: FACS, ARP-1 cells
T1 construct: also called hBCMA; BCMA on NCI-H929, ARP-1, OPM-2, U266B1, MM.1S, RPMI-8226 cells
T1 sequence: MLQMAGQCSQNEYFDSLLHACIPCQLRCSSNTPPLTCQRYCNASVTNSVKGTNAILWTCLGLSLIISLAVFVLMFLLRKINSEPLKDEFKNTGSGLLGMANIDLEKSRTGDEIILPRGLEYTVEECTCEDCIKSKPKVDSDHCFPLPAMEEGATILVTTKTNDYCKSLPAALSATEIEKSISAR
Procedure: (§1) Cells were analyzed using a BD FACS Canto system. Fluorescence-activated cell sorting (FACS) data were analyzed using Flowjo software to calculate mean fluorescence intensity (MFI) (n=3 replicates) and data (mean MFI+/−standard error of the mean [SEM] versus nM of the antibody) was generated using the GraphPad Prism software.

human BCMA on cells [2] = biological target: T1, human BCMA on cells; test: FACS, MM.1S cells
Procedure: as §1

human BCMA on cells [3] = biological target: T1, human BCMA on cells; test: FACS, OPM-2 cells
Procedure: as §1

human BCMA on cells [4] = biological target: T1, human BCMA on cells; test: FACS, U266B1 cells
Procedure: as §1

human BCMA on cells [5] = biological target: T1, human BCMA on cells; test: FACS, NCI-H929 cells
Procedure: as §1

human BCMA on cells [6] = biological target: T1, human BCMA on cells; test: FACS, RPMI-8226 cells
Procedure: as §1

human BCMA on cells [7] = biological target: T1, human BCMA on cells; test: cell-based or functional assay
human BCMA on cells [8] = biological target: T1, human BCMA on cells; test: cell-based or functional assay; remark: listed apart in the source
human BCMA on cells [9] = biological target: T1, human BCMA on cells; test: cell-based or functional assay; remark: listed apart in the source
cynomolgus BCMA on cells = cynomolgus BCMA on cells (cynomolgus monkey, UniProt Q02223 1-184 (human entry)); test: FACS, 293T-cBCMA cells
Procedure: (§2) Cells were collected, washed and resuspended in FACS buffer (DPBS buffer with 1% bovine serum albumin and 0.05% v/v sodium azide). […] Ab binding was detected with phycoerythrin-conjugated anti-human Fc Ab (Jackson ImmunoResearch, West Grove, Pa.) for 1 hour on ice. Cells were analyzed using a BD FACS Canto system.

mouse BCMA on cells = biological target: T2, mouse BCMA on cells (mouse, UniProt O88472 1-185); test: FACS, 293T-mBCMA cells; NB: No binding
T2 construct: HEK293T cells transfected with plasmid encoding mouse BCMA (Invivogen)
T2 sequence: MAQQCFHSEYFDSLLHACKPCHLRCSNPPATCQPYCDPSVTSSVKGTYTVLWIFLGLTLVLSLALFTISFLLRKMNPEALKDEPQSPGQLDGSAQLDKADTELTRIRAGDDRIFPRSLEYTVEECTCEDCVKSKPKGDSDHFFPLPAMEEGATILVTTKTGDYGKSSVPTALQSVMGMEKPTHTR
Procedure: Cells were plated in 96-well plates (100 k per well) and incubated with antibodies (titrated half-log serial dilutions from 200 nM) for 1 hour on ice. […] Cells were analyzed using a BD LSR-Fortessa X-20 flow cytometry system. FACS data were analyzed using Flowjo software to calculate geometric fluorescence intensity (gMFI) (n=3 replicates) and data (geo. Mean MFI+/−SEM versus log nM Ab) were generated using GraphPad Prism software.

human TACI on cells = biological target: T3, human TACI on cells (human, UniProt O14836 1-293); test: flow cytometry on 293T cells stably expressing human TACI, detected with PE-conjugated anti-human Fc antibody
T3 construct: whole, on cells; also called TNFRSF13B
T3 sequence (looked up): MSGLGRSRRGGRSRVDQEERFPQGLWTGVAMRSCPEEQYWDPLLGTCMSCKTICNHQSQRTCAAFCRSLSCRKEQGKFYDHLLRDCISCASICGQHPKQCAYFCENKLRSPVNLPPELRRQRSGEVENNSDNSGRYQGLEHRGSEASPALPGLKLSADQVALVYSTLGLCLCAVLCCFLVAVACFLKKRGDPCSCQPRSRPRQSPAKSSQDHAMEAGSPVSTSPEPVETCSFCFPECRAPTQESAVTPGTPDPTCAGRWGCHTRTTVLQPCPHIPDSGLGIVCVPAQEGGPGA
Procedure: (§3) Cells were plated in 96-well plates (100K per well) and incubated with Abs. […] ADC binding was detected with phycoerythrin-conjugated anti-human Fc Ab (Jackson ImmunoResearch, West Grove, Pa.) for 1 hour on ice. Cells were analyzed using a BD FACS Canto system. FACS data were analyzed using Flowjo software to generate cell binding histograms.

human BAFF-R on cells = biological target: T4, human BAFF-R on cells (human, UniProt Q96RJ3 1-184); test: flow cytometry on 293T cells stably expressing human BAFF-R, detected with PE-conjugated anti-human Fc antibody
T4 construct: whole, on cells; also called TNFRSF13C
Procedure: as §3

human BCMA on cells [10] = biological target: T1, human BCMA on cells; test: FACS, 293T-hBCMA cells
Procedure: as §2

cynomolgus BCMA on cells, sequence (Q02223 other isoform, or with tags, fused parts or gaps): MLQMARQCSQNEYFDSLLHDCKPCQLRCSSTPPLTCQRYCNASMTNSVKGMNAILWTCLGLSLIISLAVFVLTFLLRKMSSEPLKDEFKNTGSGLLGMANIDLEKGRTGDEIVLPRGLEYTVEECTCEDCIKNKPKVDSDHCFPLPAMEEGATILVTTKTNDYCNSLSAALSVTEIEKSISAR

B1: Conjugate 4 (antibody, human IgG1, kappa, V domains shown)
VH: EVQLVESGGGLVQPGGSLRLSCAASGFNISAPGIHWVRQAPGKGLEWVGFINPAGGYTDYADSVKGRFTISADTSKNTAYLQMNSLRAEDTAVYYCARDYIRQYWTYVLDYWGQGTLVTVSS
VL: not shown
modifications: p-azidomethyl-phenylalanine in place of HC-Y180 and HC-F404 (EU numbering), each bonded to a non-cleavable maytansine linker-warhead (Conjugate M); DAR4
notes: also called Conjugate 4 ADC; SP8919 ADC
Work on B1 yielded a Kd (human BCMA on cells [1]) of 1.2 nM, a Kd (human BCMA on cells [2]) of 1.6 nM and a Kd (human BCMA on cells [3]) of 2.3 nM. It also gave a Kd (human BCMA on cells [4]) of 3.9 nM, a Kd (human BCMA on cells [5]) of 2.4 nM and a Kd (human BCMA on cells [6]) of 1.8 nM. For the same binder, the “cell killing EC50, NCI-H929, Experiment 1” value (human BCMA on cells [7]) was 0.8 nM, the “cell killing EC50, NCI-H929, Experiment 2” value (human BCMA on cells [7]) was 0.8 nM and the “cell killing EC50, OPM2, Experiment 1” value (human BCMA on cells [7]) was 1.7 nM. For the same binder, the “cell killing EC50, OPM2, Experiment 2” value (human BCMA on cells [7]) was 1.8 nM, the “cell killing EC50, U266B1, Experiment 1” value (human BCMA on cells [7]) was 0.8 nM and the “cell killing EC50, U266B1, Experiment 2” value (human BCMA on cells [7]) was 0.9 nM. The “cell killing EC50, NCI-H929, Experiment 1” value (human BCMA on cells [8]) was 0.7 nM, the “cell killing EC50, NCI-H929, Experiment 2” value (human BCMA on cells [8]) was 0.8 nM and the “cell killing EC50, OPM2, Experiment 1” value (human BCMA on cells [8]) was 1.7 nM. The “cell killing EC50, OPM2, Experiment 2” value (human BCMA on cells [8]) was 2 nM, the “cell killing EC50, U266B1, Experiment 1” value (human BCMA on cells [8]) was 0.7 nM and the “cell killing EC50, U266B1, Experiment 2” value (human BCMA on cells [8]) was 0.8 nM. For the same binder, the “cell killing EC50, ARP-1, no competing reagent” value (human BCMA on cells [9]) was 0.7 nM, the “cell killing EC50, NCI-H929, no competing reagent” value (human BCMA on cells [9]) was 0.9 nM and the “cell killing EC50, OPM2, no competing reagent” value (human BCMA on cells [9]) was 3.3 nM. The “cell killing EC50, U266B1, no competing reagent” value (human BCMA on cells [9]) was 0.9 nM, the Kd (cynomolgus BCMA on cells) was 2.7 nM and the binding result (mouse BCMA on cells) was “no binding (tested: 200 nM)”. B1: no binding (tested: 67 nM) (human TACI on cells); no binding (tested: 67 nM) (human BAFF-R on cells).

B2: 2265-F02 Y180/F404 (unconjugated Ab) (antibody, human IgG1, kappa, V domains shown)
VH: EVQLVESGGGLVQPGGSLRLSCAASGFNISAPGIHWVRQAPGKGLEWVGFINPAGGYTDYADSVKGRFTISADTSKNTAYLQMNSLRAEDTAVYYCARDYIRQYWTYVLDYWGQGTLVTVSS
VL: not shown
modifications: p-azidomethyl-phenylalanine in place of HC-Y180 and HC-F404 (EU numbering), unconjugated
notes: also called unconjugated anti-BCMA antibody, 2265-F02; unconjugated antibody version of Conjugate 4
In the case of B2, the Kd (human BCMA on cells [1]) is reported as 1 nM, the Kd (human BCMA on cells [2]) is reported as 0.9 nM and the Kd (human BCMA on cells [3]) is reported as 1.3 nM. The Kd (human BCMA on cells [5]) was 0.9 nM, the Kd (human BCMA on cells [6]) was 1.3 nM and the Kd (cynomolgus BCMA on cells) was 2.8 nM. For the same binder, the Kd (human BCMA on cells [10]) was 2.1 nM and the binding result (mouse BCMA on cells) was “no binding (tested: 200 nM)”.
